We go through two substances from article PMC2855492.

Assay [1] deals with monkey FcRn (monkey (cynomolgus monkeys in the same paragraph)) (UniProt Q8SPV9).
Assay [2] has as its target human neonatal Fc receptor (FcRn) (human) (UniProt P55899).
The target in assay [3] is monkey FcRn (monkey (cynomolgus monkeys in the same paragraph)) (UniProt Q8SPV9). This is another data set of the same source.
In assay [4] the target is human neonatal Fc receptor (FcRn) (human) (UniProt P55899). The assay can be described thus: SPR. A general note: Surface plasmon resonance follows binding to a sensor surface in real time, without labels.

Turning to “Xtend-EGFR (humanized cetuximab huC225 IgG1 with the Fc substitutions M428L/N434S) (antibody)”, the serum half-life in cynomolgus monkeys, 7.5 mg/kg i.v. in assay [1] was 4.7 days. The serum half-life in hFcRn mice (mFcRn-/-, hFcRn+), 2 mg/kg i.v. in assay [2] was 13.9 days.

In assay [3], “Xtend-VEGF (bevacizumab IgG1 with the Fc substitutions M428L/N434S) (antibody)” returned a serum half-life in cynomolgus monkeys, 4 mg/kg i.v. of 31.1 days. In assay [2], this substance came in with a serum half-life in hFcRn mice (mFcRn-/-, hFcRn+), 2 mg/kg i.v. of 12 days. The substance further displayed a fold improvement in FcRn affinity in assay [4] of 11 fold.
